{"source": "the Immune Epitope Database (IEDB)", "conditions_in_all_cases": "source organism: Lyssavirus rabies", "key": {"HLA-A*02:01": {"target": "HLA-A*02:01", "assay": "IEDB peptide-MHC binding, purified MHC/direct/fluorescence; filed as Kd, often an IC50 or EC50 that approximates it; ≥ and ≤ were set here for values at or beyond the usual limits of such assays"}, "HLA-A*02:03": {"target": "HLA-A*02:03", "assay": "IEDB peptide-MHC binding, purified MHC/direct/fluorescence; filed as Kd, often an IC50 or EC50 that approximates it; ≥ and ≤ were set here for values at or beyond the usual limits of such assays"}, "HLA-A*02:06": {"target": "HLA-A*02:06", "assay": "IEDB peptide-MHC binding, purified MHC/direct/fluorescence; filed as Kd, often an IC50 or EC50 that approximates it; ≥ and ≤ were set here for values at or beyond the usual limits of such assays"}, "HLA-A*02:11": {"target": "HLA-A*02:11", "assay": "IEDB peptide-MHC binding, purified MHC/direct/fluorescence; filed as Kd, often an IC50 or EC50 that approximates it; ≥ and ≤ were set here for values at or beyond the usual limits of such assays"}, "HLA-A*02:12": {"target": "HLA-A*02:12", "assay": "IEDB peptide-MHC binding, purified MHC/direct/fluorescence; filed as Kd, often an IC50 or EC50 that approximates it; ≥ and ≤ were set here for values at or beyond the usual limits of such assays"}, "HLA-A*02:19": {"target": "HLA-A*02:19", "assay": "IEDB peptide-MHC binding, purified MHC/direct/fluorescence; filed as Kd, often an IC50 or EC50 that approximates it; ≥ and ≤ were set here for values at or beyond the usual limits of such assays"}, "HLA-A*03:01": {"target": "HLA-A*03:01", "assay": "IEDB peptide-MHC binding, purified MHC/direct/fluorescence; filed as Kd, often an IC50 or EC50 that approximates it; ≥ and ≤ were set here for values at or beyond the usual limits of such assays"}, "HLA-A*23:01": {"target": "HLA-A*23:01", "assay": "IEDB peptide-MHC binding, purified MHC/direct/fluorescence; filed as Kd, often an IC50 or EC50 that approximates it; ≥ and ≤ were set here for values at or beyond the usual limits of such assays"}, "HLA-A*24:03": {"target": "HLA-A*24:03", "assay": "IEDB peptide-MHC binding, purified MHC/direct/fluorescence; filed as Kd, often an IC50 or EC50 that approximates it; ≥ and ≤ were set here for values at or beyond the usual limits of such assays"}, "HLA-A*26:01": {"target": "HLA-A*26:01", "assay": "IEDB peptide-MHC binding, purified MHC/direct/fluorescence; filed as Kd, often an IC50 or EC50 that approximates it; ≥ and ≤ were set here for values at or beyond the usual limits of such assays"}, "HLA-A*29:02": {"target": "HLA-A*29:02", "assay": "IEDB peptide-MHC binding, purified MHC/direct/fluorescence; filed as Kd, often an IC50 or EC50 that approximates it; ≥ and ≤ were set here for values at or beyond the usual limits of such assays"}, "HLA-A*69:01": {"target": "HLA-A*69:01", "assay": "IEDB peptide-MHC binding, purified MHC/direct/fluorescence; filed as Kd, often an IC50 or EC50 that approximates it; ≥ and ≤ were set here for values at or beyond the usual limits of such assays"}, "HLA-B*15:01": {"target": "HLA-B*15:01", "assay": "IEDB peptide-MHC binding, purified MHC/direct/fluorescence; filed as Kd, often an IC50 or EC50 that approximates it; ≥ and ≤ were set here for values at or beyond the usual limits of such assays"}, "HLA-B*15:17": {"target": "HLA-B*15:17", "assay": "IEDB peptide-MHC binding, purified MHC/direct/fluorescence; filed as Kd, often an IC50 or EC50 that approximates it; ≥ and ≤ were set here for values at or beyond the usual limits of such assays"}, "HLA-B*18:01": {"target": "HLA-B*18:01", "assay": "IEDB peptide-MHC binding, purified MHC/direct/fluorescence; filed as Kd, often an IC50 or EC50 that approximates it; ≥ and ≤ were set here for values at or beyond the usual limits of such assays"}, "HLA-B*27:03": {"target": "HLA-B*27:03", "assay": "IEDB peptide-MHC binding, purified MHC/direct/fluorescence; filed as Kd, often an IC50 or EC50 that approximates it; ≥ and ≤ were set here for values at or beyond the usual limits of such assays"}, "HLA-B*39:01": {"target": "HLA-B*39:01", "assay": "IEDB peptide-MHC binding, purified MHC/direct/fluorescence; filed as Kd, often an IC50 or EC50 that approximates it; ≥ and ≤ were set here for values at or beyond the usual limits of such assays"}, "HLA-B*46:01": {"target": "HLA-B*46:01", "assay": "IEDB peptide-MHC binding, purified MHC/direct/fluorescence; filed as Kd, often an IC50 or EC50 that approximates it; ≥ and ≤ were set here for values at or beyond the usual limits of such assays"}, "HLA-B*51:01": {"target": "HLA-B*51:01", "assay": "IEDB peptide-MHC binding, purified MHC/direct/fluorescence; filed as Kd, often an IC50 or EC50 that approximates it; ≥ and ≤ were set here for values at or beyond the usual limits of such assays"}, "HLA-B*57:01": {"target": "HLA-B*57:01", "assay": "IEDB peptide-MHC binding, purified MHC/direct/fluorescence; filed as Kd, often an IC50 or EC50 that approximates it; ≥ and ≤ were set here for values at or beyond the usual limits of such assays"}, "HLA-C*03:03": {"target": "HLA-C*03:03", "assay": "IEDB peptide-MHC binding, purified MHC/direct/fluorescence; filed as Kd, often an IC50 or EC50 that approximates it; ≥ and ≤ were set here for values at or beyond the usual limits of such assays"}, "HLA-A*11:01": {"target": "HLA-A*11:01", "assay": "IEDB peptide-MHC binding, purified MHC/competitive/fluorescence; filed as Kd, often an IC50 or EC50 that approximates it; ≥ and ≤ were set here for values at or beyond the usual limits of such assays"}, "HLA-B*07:02": {"target": "HLA-B*07:02", "assay": "IEDB peptide-MHC binding, purified MHC/competitive/fluorescence; filed as Kd, often an IC50 or EC50 that approximates it; ≥ and ≤ were set here for values at or beyond the usual limits of such assays"}, "HLA-B*08:01": {"target": "HLA-B*08:01", "assay": "IEDB peptide-MHC binding, purified MHC/competitive/fluorescence; filed as Kd, often an IC50 or EC50 that approximates it; ≥ and ≤ were set here for values at or beyond the usual limits of such assays"}, "HLA-B*58:01": {"target": "HLA-B*58:01", "assay": "IEDB peptide-MHC binding, purified MHC/competitive/fluorescence; filed as Kd, often an IC50 or EC50 that approximates it; ≥ and ≤ were set here for values at or beyond the usual limits of such assays"}}, "data": [{"sequence": "YLDNVGVHI", "values": [{"measurement": "Kd", "setting": "HLA-A*02:01", "value": "≥ 20", "unit": "µM"}, {"measurement": "Kd", "setting": "HLA-A*02:03", "value": "≥ 20", "unit": "µM"}, {"measurement": "Kd", "setting": "HLA-A*02:06", "value": 0.036, "unit": "µM"}, {"measurement": "Kd", "setting": "HLA-A*02:11", "value": "≥ 20", "unit": "µM"}, {"measurement": "Kd", "setting": "HLA-A*02:12", "value": 0.007, "unit": "µM"}, {"measurement": "Kd", "setting": "HLA-A*02:19", "value": "≥ 20", "unit": "µM"}, {"measurement": "Kd", "setting": "HLA-A*03:01", "value": "≥ 20", "unit": "µM"}, {"measurement": "Kd", "setting": "HLA-A*23:01", "value": "≥ 20", "unit": "µM"}, {"measurement": "Kd", "setting": "HLA-A*24:03", "value": "≥ 20", "unit": "µM"}, {"measurement": "Kd", "setting": "HLA-A*26:01", "value": "≥ 20", "unit": "µM"}, {"measurement": "Kd", "setting": "HLA-A*29:02", "value": "≥ 20", "unit": "µM"}, {"measurement": "Kd", "setting": "HLA-A*69:01", "value": "≥ 20", "unit": "µM"}, {"measurement": "Kd", "setting": "HLA-B*15:01", "value": "≥ 20", "unit": "µM"}, {"measurement": "Kd", "setting": "HLA-B*15:17", "value": "≥ 20", "unit": "µM"}, {"measurement": "Kd", "setting": "HLA-B*18:01", "value": "≥ 20", "unit": "µM"}, {"measurement": "Kd", "setting": "HLA-B*27:03", "value": "≥ 20", "unit": "µM"}, {"measurement": "Kd", "setting": "HLA-B*39:01", "value": "≥ 20", "unit": "µM"}, {"measurement": "Kd", "setting": "HLA-B*46:01", "value": "≥ 20", "unit": "µM"}, {"measurement": "Kd", "setting": "HLA-B*51:01", "value": "≥ 20", "unit": "µM"}, {"measurement": "Kd", "setting": "HLA-B*57:01", "value": "≥ 20", "unit": "µM"}, {"measurement": "Kd", "setting": "HLA-C*03:03", "value": "≥ 20", "unit": "µM"}, {"measurement": "Kd", "setting": "HLA-A*11:01", "value": "≥ 5", "unit": "µM"}, {"measurement": "Kd", "setting": "HLA-B*07:02", "value": "≥ 5", "unit": "µM"}, {"measurement": "Kd", "setting": "HLA-B*08:01", "value": "≥ 5", "unit": "µM"}, {"measurement": "Kd", "setting": "HLA-B*58:01", "value": "≥ 5", "unit": "µM"}]}]}
